B1: anti-TrkB chicken-derived clone B11 (antibody, V domains shown)
VH: AVTLDESGGGLQTPGGALSLVCKASGFTFSSFNMFWVRQAPGKGLEFVAHIKRNGGETDYGAAVKGRATISRDDGQSTVRLQLNNLRAEDTATYFCAKDAGDNCRWNYCTTNIDAWGHGTEVIVSS
VL: QAALTQPASVSANPGETVKITCSGGGRWYGTYYYGWYQQKSPGSAPVTVIYSNDKRPSDIPSRFSGSASGSTATLTITGVQADDEAVYYCGSWDSTDTTAFGAGTTLTVL
notes: chimeric chicken-human mAb
B2: KiH.3H11_TrkB × 1A09_CD3 (bispecific antibody)
scFv: QVQLQQSGPGLVKPSQTLSLTCAISGDSVSSNSAVWNWIRQSPSRGLEWLGRTYYRSKWYTDFAVSVKSRITINPDTSKNQFSLQLNSVTPEDTAVYYCARGRNGMDVWGQGTMVTVSTSSGGGGSGGGGSGGSALLPVLTQPPSASGTPGQRVTISCSGSSSNIGHKYVYWYQQLPGAAPKLLIYRNNQRPSGVPDRFSASKSGTSASLAISGLRSEDEADYYCATWDDSLNGVVFGGGTKVTVL
VH: EVQLVQSGGGLVKPGGSLRLSCAASGFTFSSYSMNWVRQAPGKGLEWVSSISSSSSYIYYADSVKGRFTISRDNSKNTLYLQMNSLRAEDTAVYYCARVKDYDSSLDYWGQGTLVTVSS
VL: SYELMQPPSVSVSPGQTARITCSGFKLGDKYVSWYQQKPGQSPVLVIYQDSKRPSGIPERFSGSNSGNTATLTISGTQAMDEADYYCQAWDSSTVVFGGGTKLTVL
notes: scFv-knob-Fc (IgG1 T366W/S354C) + Fab-hole-Fc (T366S/L368A/Y407V/Y349C); also called 3H11-1A09
B3: KiH.3C12_TrkB × 1A09_CD3 (bispecific antibody)
scFv: QVQLVQSGAEVKKPGESLKISCKGSGYSFTSYWIGWVRQMPGKGLEWMGIIYPGDSDTRYSPSFQGQVTISADKSISTAYLQWSSLKASDTAMYYCTRSSFNDHWGQGTLVTVSSSSGGGGSGGGGSGGSALQPVLTQPPSVSVSPGQTASITCSGDKLGNKFVSWFQQKPGQSPVLVIYQDTKRPSGIPERFSGSNSGSTATLTITGTQAMDDADYYCQAWNTNTALFGGGTKLTVL
VH: EVQLVQSGGGLVKPGGSLRLSCAASGFTFSSYSMNWVRQAPGKGLEWVSSISSSSSYIYYADSVKGRFTISRDNSKNTLYLQMNSLRAEDTAVYYCARVKDYDSSLDYWGQGTLVTVSS
VL: SYELMQPPSVSVSPGQTARITCSGFKLGDKYVSWYQQKPGQSPVLVIYQDSKRPSGIPERFSGSNSGNTATLTISGTQAMDEADYYCQAWDSSTVVFGGGTKLTVL
notes: scFv-knob-Fc (IgG1 T366W/S354C) + Fab-hole-Fc (T366S/L368A/Y407V/Y349C); also called 3C12-1A09; 3C12/1A09
B4: KiH.3H11_TrkB × 3G07_CD3 (bispecific antibody)
scFv: QVQLQQSGPGLVKPSQTLSLTCAISGDSVSSNSAVWNWIRQSPSRGLEWLGRTYYRSKWYTDFAVSVKSRITINPDTSKNQFSLQLNSVTPEDTAVYYCARGRNGMDVWGQGTMVTVSTSSGGGGSGGGGSGGSALLPVLTQPPSASGTPGQRVTISCSGSSSNIGHKYVYWYQQLPGAAPKLLIYRNNQRPSGVPDRFSASKSGTSASLAISGLRSEDEADYYCATWDDSLNGVVFGGGTKVTVL
VH: QVQLQQSGGGLVQPGGSLRLSCAASGFSFGSSAMSWVRQAPGRGLEWVSGISHSGSTTYYADSVKGRFTISRDNSKNTLYLQMNSLRVEDTAVYYCAKIGAYGYYFHYWGQGTLVTVSS
VL: NFMLTQPHSLSESPGKTVTISCTRSSGSIASKYVQWYQQRPGSAPTTVIYDDKQRPSGVPDRFSGSFDSSSNSASLTISGLKTEDEADYYCQSFDSTNQAVVFGGGTKLTVL
notes: scFv-knob-Fc (IgG1 T366W/S354C) + Fab-hole-Fc (T366S/L368A/Y407V/Y349C); also called 3H11-3G07
B5: KiH.3H11_TrkB × 8A05_CD3 (bispecific antibody)
scFv: QVQLQQSGPGLVKPSQTLSLTCAISGDSVSSNSAVWNWIRQSPSRGLEWLGRTYYRSKWYTDFAVSVKSRITINPDTSKNQFSLQLNSVTPEDTAVYYCARGRNGMDVWGQGTMVTVSTSSGGGGSGGGGSGGSALLPVLTQPPSASGTPGQRVTISCSGSSSNIGHKYVYWYQQLPGAAPKLLIYRNNQRPSGVPDRFSASKSGTSASLAISGLRSEDEADYYCATWDDSLNGVVFGGGTKVTVL
VH: QVQLQQSGGGLVQSGGSLRLSCAASGFSFGSSAMSWVRQAPGRGLEWVSGISHSGSTTYYADSVKGRFTISRDNSKNTLYLQMNSLRVEDTAVYYCAKIGAYGYYFHYWGQGTLVTVSS
VL: NFMLTQPHSVSESPGKTVTISCTRSGGSIASNYVQWYQQRPGSSPTTVIYDDNQRPSGVPDRFSGSIDSSSNSASLTISGLKTEDEADYYCQSSDNINHVIFGGGTKLTVL
notes: scFv-knob-Fc (IgG1 T366W/S354C) + Fab-hole-Fc (T366S/L368A/Y407V/Y349C); also called 3H11-8A05
B6: KiH.6E08_TrkB × 1A09_CD3 (bispecific antibody)
scFv: QVQLVQSGGGVVQPGRSLRLSCAASGFTFSSYAMHWVRQAPGKGLEWVAVISYDGSNKYYADSVKGRFTISRDNSKNTLYLQMNSLRAEDTAVYYCARAFRRYDAFDIWGQGTLVTVSSSSGGGGSGGGGSGGSALDIQMTQTPLSLSVTLGQPASISCRSSQGLVYSDGNTYLNWFQQRPGQSPRRLIYKVSNRDSGVPDRFSGSGSGTDFTLKISRVEAEDVGVYYCMQGTHWPPAFGQGTKVEIK
VH: EVQLVQSGGGLVKPGGSLRLSCAASGFTFSSYSMNWVRQAPGKGLEWVSSISSSSSYIYYADSVKGRFTISRDNSKNTLYLQMNSLRAEDTAVYYCARVKDYDSSLDYWGQGTLVTVSS
VL: SYELMQPPSVSVSPGQTARITCSGFKLGDKYVSWYQQKPGQSPVLVIYQDSKRPSGIPERFSGSNSGNTATLTISGTQAMDEADYYCQAWDSSTVVFGGGTKLTVL
notes: scFv-knob-Fc (IgG1 T366W/S354C) + Fab-hole-Fc (T366S/L368A/Y407V/Y349C); also called 6E08-1A09
B7: KiH.6E08_TrkB × 8A05_CD3 (bispecific antibody)
scFv: QVQLVQSGGGVVQPGRSLRLSCAASGFTFSSYAMHWVRQAPGKGLEWVAVISYDGSNKYYADSVKGRFTISRDNSKNTLYLQMNSLRAEDTAVYYCARAFRRYDAFDIWGQGTLVTVSSSSGGGGSGGGGSGGSALDIQMTQTPLSLSVTLGQPASISCRSSQGLVYSDGNTYLNWFQQRPGQSPRRLIYKVSNRDSGVPDRFSGSGSGTDFTLKISRVEAEDVGVYYCMQGTHWPPAFGQGTKVEIK
VH: QVQLQQSGGGLVQSGGSLRLSCAASGFSFGSSAMSWVRQAPGRGLEWVSGISHSGSTTYYADSVKGRFTISRDNSKNTLYLQMNSLRVEDTAVYYCAKIGAYGYYFHYWGQGTLVTVSS
VL: NFMLTQPHSVSESPGKTVTISCTRSGGSIASNYVQWYQQRPGSSPTTVIYDDNQRPSGVPDRFSGSIDSSSNSASLTISGLKTEDEADYYCQSSDNINHVIFGGGTKLTVL
notes: scFv-knob-Fc (IgG1 T366W/S354C) + Fab-hole-Fc (T366S/L368A/Y407V/Y349C); also called 6E08-8A05
B8: KiH.6E08_TrkB × 3G07_CD3 (bispecific antibody)
scFv: QVQLVQSGGGVVQPGRSLRLSCAASGFTFSSYAMHWVRQAPGKGLEWVAVISYDGSNKYYADSVKGRFTISRDNSKNTLYLQMNSLRAEDTAVYYCARAFRRYDAFDIWGQGTLVTVSSSSGGGGSGGGGSGGSALDIQMTQTPLSLSVTLGQPASISCRSSQGLVYSDGNTYLNWFQQRPGQSPRRLIYKVSNRDSGVPDRFSGSGSGTDFTLKISRVEAEDVGVYYCMQGTHWPPAFGQGTKVEIK
VH: QVQLQQSGGGLVQPGGSLRLSCAASGFSFGSSAMSWVRQAPGRGLEWVSGISHSGSTTYYADSVKGRFTISRDNSKNTLYLQMNSLRVEDTAVYYCAKIGAYGYYFHYWGQGTLVTVSS
VL: NFMLTQPHSLSESPGKTVTISCTRSSGSIASKYVQWYQQRPGSAPTTVIYDDKQRPSGVPDRFSGSFDSSSNSASLTISGLKTEDEADYYCQSFDSTNQAVVFGGGTKLTVL
notes: scFv-knob-Fc (IgG1 T366W/S354C) + Fab-hole-Fc (T366S/L368A/Y407V/Y349C); also called 6E08-3G07
B9: KiH.3C12_TrkB × 3G07_CD3 (bispecific antibody)
scFv: QVQLVQSGAEVKKPGESLKISCKGSGYSFTSYWIGWVRQMPGKGLEWMGIIYPGDSDTRYSPSFQGQVTISADKSISTAYLQWSSLKASDTAMYYCTRSSFNDHWGQGTLVTVSSSSGGGGSGGGGSGGSALQPVLTQPPSVSVSPGQTASITCSGDKLGNKFVSWFQQKPGQSPVLVIYQDTKRPSGIPERFSGSNSGSTATLTITGTQAMDDADYYCQAWNTNTALFGGGTKLTVL
VH: QVQLQQSGGGLVQPGGSLRLSCAASGFSFGSSAMSWVRQAPGRGLEWVSGISHSGSTTYYADSVKGRFTISRDNSKNTLYLQMNSLRVEDTAVYYCAKIGAYGYYFHYWGQGTLVTVSS
VL: NFMLTQPHSLSESPGKTVTISCTRSSGSIASKYVQWYQQRPGSAPTTVIYDDKQRPSGVPDRFSGSFDSSSNSASLTISGLKTEDEADYYCQSFDSTNQAVVFGGGTKLTVL
notes: scFv-knob-Fc (IgG1 T366W/S354C) + Fab-hole-Fc (T366S/L368A/Y407V/Y349C); also called 3C12-3G07; 3C12/3G07
B10: KiH.3C12_TrkB × 8A05_CD3 (bispecific antibody)
scFv: QVQLVQSGAEVKKPGESLKISCKGSGYSFTSYWIGWVRQMPGKGLEWMGIIYPGDSDTRYSPSFQGQVTISADKSISTAYLQWSSLKASDTAMYYCTRSSFNDHWGQGTLVTVSSSSGGGGSGGGGSGGSALQPVLTQPPSVSVSPGQTASITCSGDKLGNKFVSWFQQKPGQSPVLVIYQDTKRPSGIPERFSGSNSGSTATLTITGTQAMDDADYYCQAWNTNTALFGGGTKLTVL
VH: QVQLQQSGGGLVQSGGSLRLSCAASGFSFGSSAMSWVRQAPGRGLEWVSGISHSGSTTYYADSVKGRFTISRDNSKNTLYLQMNSLRVEDTAVYYCAKIGAYGYYFHYWGQGTLVTVSS
VL: NFMLTQPHSVSESPGKTVTISCTRSGGSIASNYVQWYQQRPGSSPTTVIYDDNQRPSGVPDRFSGSIDSSSNSASLTISGLKTEDEADYYCQSSDNINHVIFGGGTKLTVL
notes: scFv-knob-Fc (IgG1 T366W/S354C) + Fab-hole-Fc (T366S/L368A/Y407V/Y349C); also called 3C12-8A05; 3C12/8A05
B11: anti-TrkB chicken-derived clone F1.3 (antibody, V domains shown)
VH: AVTLDESGGGLQTPGGALSLVCKASGFTFSSFPMVWVRQAPGKGLEFVAGIVRTSTPKYGAAVTGRATISRDNGQSTVRLQLNNLRAEDTGTYFCAKSATICGNCPEDIDAWGHGTEVIVSS
VL: QAALTQPASVSANPGETVKITCSGGSSDYGWFQQKSPGSAPVTVIYYSDKRPSDIPSRFSGSTSGSTNTLTITGVQVEDEAVYFCGSGDNSYVGFGAGTTLTVL
notes: chimeric chicken-human mAb
B12: anti-TrkB chicken-derived clone A12 (antibody, V domains shown)
VH: AVTLDESGGGLQTPGGALSLVCKASGFTFSSFPMVWVRQAPGKGLEFVAGIVRTSTPKYGAAVTGRATISRDNGQSTVRLQLNNLRAEDTGTYFCAKSATICGNCPEDIDAWGHGTEVIVSS
VL: QAALTQPASVSANPGETVKITCSGGSSDYGWFQQKSPGSAPVTVIYYSDKRPSDIPSRFSGSASGSMGALIITGVQAEDEAVYFCGSRDSSNVAIFGAGTTLTVL
notes: chimeric chicken-human mAb
B13: anti-TrkB chicken-derived clone B4.2 (antibody, V domains shown)
VH: AVTLDESGGGLQTPGGGLSLVCKASGFTFSSYTMQWVRQAPGKGLEWVAGICNDGTTTNYGSAVKGRATISRDNGQSTLRLQLNNLRAEDTGIYFCTRGVDICWNSGNNIDAWGHGTEVIVSS
VL: QAALTQPASVSANPGETVKITCSGGGSYYGSYYYGWYQQKSPGSAPVTVIYNNDKRPSDIPSRFSGSLSGSTNTLTITGVQVEDESVYFCGSKDSSGAGIYGAGTTLTVL
notes: chimeric chicken-human mAb

How the values were obtained:
[1] = molecular target: TrkB in PathHunter eXpress TrkB Functional Assay cells (modified U2OS); test: cell-based or functional assay
[2] = molecular target: T1, human TrkB-His (human, UniProt Q16620 32-430); test: BLI off-rate, mAb immobilized, 300 nM TrkB-His
T1 construct: in-house fusion of the TrkB ECD with poly-His, HEK293; also called huTrkB-His; hTrkB-His; not shown: poly-His tag

[3] = molecular target: T1, human TrkB-His; test: ELISA

Binder | TrkB activation (EC50) [1] | koff [2] | binding result [3]
B1 | 0.00086 ng/mL | 0.00434 s⁻¹ | 
B2 |  |  | binds
B3 |  |  | binds
B4 |  |  | binds
B5 |  |  | binds
B6 |  |  | binds
B7 |  |  | binds
B8 |  |  | binds
B9 |  |  | binds
B10 |  |  | binds
B11 | 380 ng/mL | 0.0156 s⁻¹ | 
B12 | 4.5 ng/mL | 0.00176 s⁻¹ | 
B13 |  | 0.00136 s⁻¹ | 

Reference: US20260092121A1 (TALEM THERAPEUTICS, published 2026)
